[ ]: non-standard residue; d: D form. pS = N[C@@H](COP(=O)(O)O)C(=O)O
B1: AEDANS-labeled phosphorylated full-length HSPB6 (natural protein, human, UniProt O14558 1-160, looked up)
chain: MEIPVPVQPSWLRRASAPLPGLSAPGRLFDQRFGEGLLEAELAALCPTTLAPYYLRAPSVALPVAQVPTDPGHFSVLLDVKHFSPEEIAVKVVGEHVEVHARHEERPDEHGFVAREFHRRYRLPPGVDPAAVTSALSPEGVLSIQAAPASAQAPPPAAAK
modifications: phosphoserine at 16; 1,5-I-AEDANS moiety on Cys46 (extent of labeling 90%)
B2: pHSPB6(13-20) phosphopeptide (peptide, UniProt O14558 13-20, looked up)
peptide: H-RRA[pS]APLP-OH
SMILES: CC(C)C[C@H](NC(=O)[C@@H]1CCCN1C(=O)[C@H](C)NC(=O)[C@H](COP(=O)(O)O)NC(=O)[C@H](C)NC(=O)[C@H](CCCNC(=N)N)NC(=O)[C@@H](N)CCCNC(=N)N)C(=O)N1CCC[C@H]1C(=O)O

Assays:
14-3-3σ WT (1-231) = biological target: T1, 14-3-3σ WT (1-231) (human, UniProt P31947 1-231); assay: other fluorescence titration
T1 sequence: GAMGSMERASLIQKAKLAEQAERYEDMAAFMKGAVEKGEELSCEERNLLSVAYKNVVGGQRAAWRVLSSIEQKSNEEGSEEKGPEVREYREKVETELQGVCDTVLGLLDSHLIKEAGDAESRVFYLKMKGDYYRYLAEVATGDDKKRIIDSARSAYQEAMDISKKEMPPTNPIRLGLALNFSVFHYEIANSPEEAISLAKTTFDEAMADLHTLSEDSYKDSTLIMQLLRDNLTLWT

14-3-3σ Clu3 (1-231) = biological target: T2, 14-3-3σ Clu3 (1-231) (human, UniProt P31947 1-231, 75EEK77 → AAA); assay: crystal structure
T2 sequence: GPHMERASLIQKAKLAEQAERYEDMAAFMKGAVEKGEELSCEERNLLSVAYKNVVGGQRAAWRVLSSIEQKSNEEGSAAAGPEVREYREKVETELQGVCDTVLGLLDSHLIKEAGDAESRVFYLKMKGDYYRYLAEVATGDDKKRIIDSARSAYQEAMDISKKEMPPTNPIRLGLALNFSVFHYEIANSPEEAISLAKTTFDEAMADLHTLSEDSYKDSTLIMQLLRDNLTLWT

Binder | Kd (14-3-3σ WT (1-231)) [nM] | binding result (14-3-3σ Clu3 (1-231))
B1 | 560 ± 200 | –
B2 | – | binds
